From patent US20090155164A1 (Amgen, published 2009)
Positions count from the first letter of the chain named. Read-outs that look alike come from different tables or passages of the source.

Assays:
[1] = biological target: T1, monomeric human c-fms (residues 1-512)-pHis (human, UniProt P07333 20-512); assay: Biacore 3000, 25 C; mAb captured on goat anti-human IgG Fc, monomeric c-fms(1-512)-pHis analyte, 1:1 fit
T1 construct: Construct stated as residues 1-512; signal stated as amino acids 1-19 and left out; also called human c-fms (1-512).pHIS; monomeric c-fms
T1 sequence (P07333 20-512): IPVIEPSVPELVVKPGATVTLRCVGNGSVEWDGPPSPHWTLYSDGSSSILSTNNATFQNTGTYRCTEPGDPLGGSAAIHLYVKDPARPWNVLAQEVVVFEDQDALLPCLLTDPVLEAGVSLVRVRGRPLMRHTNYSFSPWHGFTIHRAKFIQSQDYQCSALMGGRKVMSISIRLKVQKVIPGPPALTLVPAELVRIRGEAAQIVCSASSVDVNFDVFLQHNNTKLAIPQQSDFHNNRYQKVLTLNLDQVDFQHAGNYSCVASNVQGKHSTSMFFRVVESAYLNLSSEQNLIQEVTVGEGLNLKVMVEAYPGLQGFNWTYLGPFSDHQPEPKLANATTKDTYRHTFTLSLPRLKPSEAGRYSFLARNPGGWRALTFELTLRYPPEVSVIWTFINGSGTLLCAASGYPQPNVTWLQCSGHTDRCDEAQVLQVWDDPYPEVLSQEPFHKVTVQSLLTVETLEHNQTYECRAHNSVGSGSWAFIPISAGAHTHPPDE
Procedure: (§1) Anti-c-fms 1.2 or 1.2 SM at 0.25 μg/ml was injected over goat anti-human IgG, Fcγ in one flow cell for 2 minutes at 10 μl/min to obtain a surface density of ˜47 RUs. Another flow cell with goat anti-human IgG, Fcγ alone was used as a reference surface. Each assay started with ten cycles of buffer as the analyte to stabilize the signal. […] Each complex was allowed to associate for 2 minutes, and dissociate for 5 minutes. The surfaces were regenerated after each c-fms or buffer injection with a 30-second pulse of 10 mM glycine HCl, pH 1.5 at 100 μl/min, followed by a 30-second injection of buffer.
(§2) Other anti-c-fms antibodies were tested in a similar manner, but changes were made to the protocol to account for differences in binding characteristics.
(§3) Data was double referenced by subtracting the reference surface responses to remove bulk refractive index changes, and then subtracting the averaged buffer blank response to remove systematic artifacts from the experimental flow cells.

[2] = biological target: T1, monomeric human c-fms (residues …); assay: Biacore, monomeric c-fms
Procedure: (§4) The binding affinities of the somatic mutation corrected antibodies to monomeric c-fms protein were measured by surface plasmon resonance using a Biacore 3000 instrument.
(§5) The affinity of human c-fms (1-512). pHIS (Amgen) for the anti-c-fms mAbs was measured by Biacore. Experiments were conducted at 25° C. using a Biacore 3000 instrument (Biacore AB) equipped with a CM4 sensor chip. Sensor chips, amine coupling reagents (EDC (1-ethyl-3(3-dimethylaminopropyl)-carbodiimide hydrochloride), NHS (N-hydroxysuccinimide), and ethanolamine-HCl, pH 8.5), 10 mM sodium acetate, pH 5.5, HBS-EP (0.01 M HEPES pH 7.4, 0.15 M NaCl, 3 mM EDTA, 0.005% v/v Surfactant P20), and 10 mM glycine-HCl, pH 1.5 were purchased from Biacore AB. Bovine serum albumin (BSA, Bovuminar Standard Powder) was purchased from Serological Corporation. AffiniPure Goat Anti-Human IgG, Fcγ Fragment Specific was purchased from Jackson ImmunoResearch Laboratories.
as §2

[3] = biological target: T1, monomeric human c-fms (residues …); assay: Biacore (summary table)
Procedure: as §1, §2, §3

[4] = biological target: T2, human c-fms, full length, on cells (human, UniProt P07333 20-972); assay: inhibition of 125I-hCSF-1 binding to AML-5 cells, 4 C; competitor: 125I-hCSF-1
T2 construct: whole, on cells; also called CSF-1R
T2 sequence (P07333 20-972): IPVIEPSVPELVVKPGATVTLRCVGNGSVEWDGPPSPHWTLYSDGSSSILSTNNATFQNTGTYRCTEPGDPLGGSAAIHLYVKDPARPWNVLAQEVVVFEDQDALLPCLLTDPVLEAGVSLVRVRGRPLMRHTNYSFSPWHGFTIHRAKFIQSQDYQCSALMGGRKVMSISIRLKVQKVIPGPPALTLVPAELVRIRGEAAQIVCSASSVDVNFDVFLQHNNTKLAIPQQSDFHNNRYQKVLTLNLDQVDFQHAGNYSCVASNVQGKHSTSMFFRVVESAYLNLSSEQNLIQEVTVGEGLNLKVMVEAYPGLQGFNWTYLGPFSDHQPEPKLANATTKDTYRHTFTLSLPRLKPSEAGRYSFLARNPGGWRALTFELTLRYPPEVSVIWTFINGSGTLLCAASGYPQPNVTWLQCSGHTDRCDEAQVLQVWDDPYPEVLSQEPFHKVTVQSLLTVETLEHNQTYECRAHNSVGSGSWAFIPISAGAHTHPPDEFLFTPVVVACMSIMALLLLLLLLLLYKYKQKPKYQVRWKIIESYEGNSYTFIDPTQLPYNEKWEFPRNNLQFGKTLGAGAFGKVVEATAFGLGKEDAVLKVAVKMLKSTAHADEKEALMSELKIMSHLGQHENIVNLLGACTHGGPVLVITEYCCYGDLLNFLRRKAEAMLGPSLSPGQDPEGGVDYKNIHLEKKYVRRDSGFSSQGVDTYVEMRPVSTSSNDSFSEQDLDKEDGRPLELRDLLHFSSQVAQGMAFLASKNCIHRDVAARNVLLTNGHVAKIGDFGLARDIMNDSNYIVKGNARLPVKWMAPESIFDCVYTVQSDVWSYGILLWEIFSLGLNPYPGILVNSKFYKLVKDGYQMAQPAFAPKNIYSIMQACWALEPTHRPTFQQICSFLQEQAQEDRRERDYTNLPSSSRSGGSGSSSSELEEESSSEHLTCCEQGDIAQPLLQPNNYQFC
Procedure: (§6) A saturation radioligand binding experiment was performed in conjunction with each inhibition assay in order to determine both a KD and […] for hCSF-1 binding to c-fms expressed on the surface of AML-5 cells. Mixtures were set up in 96-well round-bottom microtiter plates with total volumes of 150 μl/well. All reagents were diluted in binding media containing 0.2% sodium azide and experiments were conducted at 4° C. to minimize potential receptor internalization and shedding.
(§7) For the saturation binding assay, ¹²⁵I-hCSF-1 was serially diluted 2-fold, starting at a concentration of ˜1.7 nM and going out 12 wells to a concentration of ˜1.5 pM. Nonspecific binding was measured at a single concentration of ¹²⁵I-hCSF-1 (˜80 pM, in triplicate) in the presence of a 1,000-fold molar excess of unlabeled hCSF-1, and assumed to be a linear function of the concentration of radiolabeled hCSF-1 present.

[5] = biological target: T2, human c-fms, full length, on cells; assay: inhibition of 125I-CSF-1 binding to AML-5 cells; competitor: 125I-CSF-1 (summary table)
Procedure: as §6
(§8) Both assays were incubated at 4° C. on a miniorbital shaker for 4 hours, the length of time needed to reach equilibrium as determined in time course experiments. Two 60 μl aliquots of each incubation mixture were transferred to chilled 400 μl polyethylene centrifuge tubes containing 200 μl phthalate oil and spun for 1.5 minutes in a 4° C. tabletop microfuge (Sorvall,) at 9615×g to separate cell associated ¹²⁵I-hCSF-1 from free ¹²⁵I-hCSF-1. The oil tubes were cut, and each cell pellet and supernatant collected in individual 12×75 mm glass tubes and loaded on a COBRA gamma counter (Packard Instrument Company) for cpm measurements. Cpm from duplicate aliquots taken from each well were averaged for analysis.
(§9) Mean K₁ values from 2 experiments were reported (see, TABLE 13).

[6] = biological target: T1, monomeric human c-fms (residues …); assay: SPR, Biacore 3000, monomeric c-fms; reference: parent 2.360
Procedure: as §4, §5, §2

[7] = biological target: T2, human c-fms, full length, on cells; assay: cell-based or functional assay
[8] = biological target: T3, cynomolgus monkey c-fms on primary bone marrow cells (cynomolgus monkey); assay: cell-based or functional assay
[9] = biological target: T2, human c-fms, full length, on cells; assay: cell-based or functional assay; remark: listed apart in the source
[10] = biological target: T3, cynomolgus monkey c-fms on primary bone …; assay: cell-based or functional assay; remark: listed apart in the source
[11] = biological target: T2, human c-fms, full length, on cells; assay: cell-based or functional assay; remark: listed apart in the source
[12] = biological target: T3, cynomolgus monkey c-fms on primary bone …; assay: cell-based or functional assay; remark: listed apart in the source
[13] = biological target: T2, human c-fms, full length, on cells; assay: cell-based or functional assay; remark: listed apart in the source
[14] = biological target: T1, monomeric human c-fms (residues …); assay: SPR, Biacore 3000, monomeric c-fms; reference: parent 1.109
Procedure: as §4, §5, §2

[15] = biological target: T1, monomeric human c-fms (residues …); assay: Biacore, low resolution; hybridoma mAb captured on anti-human IgG, monomeric c-fms-pHis analyte at 125 nM
Procedure: Anti-human IgG was immobilized on all four flow cells of a sensor chip using amine coupling. Crude hybridoma samples were diluted into halves and captured on the anti-IgG surface. […] Sequence lineage analyses were also performed on the 29 hybridomas (see, FIG. 2).

[16] = biological target: T3, cynomolgus monkey c-fms on primary bone …; assay: cell-based or functional assay; remark: listed apart in the source
[17] = biological target: T2, human c-fms, full length, on cells; assay: cell-based or functional assay; remark: listed apart in the source
[18] = biological target: T3, cynomolgus monkey c-fms on primary bone …; assay: cell-based or functional assay; remark: listed apart in the source
[19] = biological target: T2, human c-fms, full length, on cells; assay: cell-based or functional assay; remark: listed apart in the source
[20] = biological target: T2, human c-fms, full length, on cells; assay: inhibition of 125I-hCSF-1 binding to AML-5 cells, 4 C; unlabeled hCSF-1, competitive inhibition of 125I-hCSF-1, 4 C
Procedure: as §6, §8, §9

[21] = biological target: T2, human c-fms, full length, on cells; assay: saturation radioligand binding on AML-5 cells, 4 C; 125I-labelled hCSF-1, saturation binding, 4 C
Procedure: as §7, §8, §9

B1: anti-c-fms IgG2 clone 2.360 SM (somatic mutation cured) (antibody, V domains shown)
VH: QVQLVQSGAEVKKPGASVKVSCKVSGYTLTELSMHWVRQAPGKGLEWMGGFDPEDGETIYAQKFQGRVTMTEDTSTDTAYMELSSLRSEDTAVYYCATGVMITFGGVIVGHSYYGMDVWGQGTTVTVSS
VL: DIQMTQSPSSLSASVGDRVTITCRASQGINNYLAWYQQKPGKVPKLLIYVASTLQSGVPSRFSGSGSGTDFTLTISSLQPEDVATYYCQKYNSGPFTFGPGTKVDIKR
notes: Recombinant IgG2 kappa; heavy chain Val-79 to Ala, light chain Gln-45 to Lys
[1]
  Kd: 1.2 nM
  koff: 0.000955 s⁻¹
  kon: 794000 M⁻¹ s⁻¹
[2]
  Kd: 1.2 nM
[3]
  Kd: 1.2 nM
[4]
  Ki: ~0.9 nM
[5]
  Ki: ~0.9 nM
[6]
  fold loss of affinity against the parent antibody: 2 fold
[7]
  AML-5 proliferation assay, loss in potency relative to the parent IgG2 antibody: 10 fold

B2: anti-c-fms IgG2 clone 1.2 SM (somatic mutation cured) (antibody, V domains shown)
VH: QVQLVQSGAEVKKPGASVKVSCKASGYTFTSYGISWVRQAPGQGLEWMGWISAYNGNTNYAQKLQGRVTMTTDTSTSTAYMELRSLRSDDTAVYYCARESWFGEVFFDYWGQGTLVTVSS
VL: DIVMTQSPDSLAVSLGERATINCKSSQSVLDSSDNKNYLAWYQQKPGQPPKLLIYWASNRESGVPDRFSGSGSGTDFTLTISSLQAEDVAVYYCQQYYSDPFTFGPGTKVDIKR
notes: Recombinant IgG2 kappa; light chain Ser-78 reverted to germline Thr; also called 1.2.1 SM; antibody 1.2 SM
[1]
  Kd: 0.548 nM
  koff: 0.00199 s⁻¹
  kon: 3.62e+06 M⁻¹ s⁻¹
[2]
  Kd: 0.548 nM
[8]
  Cynomolgus bone marrow bioassay IC50: 0.081 nM
[9]
  AML-5 bioassay IC50: 0.012 nM
[3]
  Kd: 0.548 nM
[4]
  Ki: 0.0115 nM
[10]
  IC50 of 1.2 SM in the presence of hCSF-1, cynomolgus bone marrow monocytic cell proliferation, Average: 0.0327 nM
  IC50 of 1.2 SM in the presence of hCSF-1, cynomolgus bone marrow monocytic cell proliferation, Expt. 1: 0.0425 nM
  IC50 of 1.2 SM in the presence of hCSF-1, cynomolgus bone marrow monocytic cell proliferation, Expt. 2: 0.026 nM
  IC50 of 1.2 SM in the presence of hCSF-1, cynomolgus bone marrow monocytic cell proliferation, Expt. 3: 0.0229 nM
[11]
  IC50 of 1.2 SM in the presence of hCSF-1, human bone marrow monocytic cell proliferation, Average: 0.0155 nM
  IC50 of 1.2 SM in the presence of hCSF-1, human bone marrow monocytic cell proliferation, Expt. 1: 0.0155 nM
  IC50 of 1.2 SM in the presence of hCSF-1, human bone marrow monocytic cell proliferation, Expt. 2: 0.0201 nM
  IC50 of 1.2 SM in the presence of hCSF-1, human bone marrow monocytic cell proliferation, Expt. 3: 0.0109 nM
[5]
  Ki: 0.0115 nM
[12]
  Cynomolgus Bone Marrow Proliferation IC50: 0.081 nM
[13]
  AML-5 proliferation IC50: 0.012 nM
[7]
  antibody concentration that prevented CSF-1-induced pTyr/c-fms, 293T/c-fms cells: ≥ 0.1 µg/ml

B3: anti-c-fms IgG2 clone 1.109 SM (somatic mutation cured) (antibody, V domains shown)
VH: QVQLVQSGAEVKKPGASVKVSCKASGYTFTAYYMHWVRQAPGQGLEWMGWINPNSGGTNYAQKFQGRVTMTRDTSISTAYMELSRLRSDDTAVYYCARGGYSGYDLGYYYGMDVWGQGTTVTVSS
VL: DIQMTQSPSSLSASVGDRVTITCQASQDISNFLDWYQQKPGKAPKLLIYDASDLDPGVPSRFSGSGSGTDFTFTISSLQPEDIATYYCQQYVSLPLTFGGGTKVEIKR
notes: Recombinant IgG2 kappa; light chain Asn-28 to Asp and Asn-45 to Lys
[1]
  Kd: 0.102 nM
  koff: 0.000271 s⁻¹
  kon: 2.66e+06 M⁻¹ s⁻¹
[2]
  Kd: 0.102 nM
[8]
  Cynomolgus bone marrow bioassay IC50: 0.023 nM
[3]
  Kd: 0.102 nM
[4]
  Ki: 0.0097 nM
[14]
  fold loss of affinity against the parent antibody: 2 fold
[5]
  Ki: 0.0097 nM
[12]
  Cynomolgus Bone Marrow Proliferation IC50: 0.023 nM
[7]
  antibody concentration that prevented CSF-1-induced pTyr/c-fms, 293T/c-fms cells: ≥ 0.1 µg/ml

B4: anti-c-fms hybridoma antibody 1.143 (antibody, IgG1, V domains shown)
VH: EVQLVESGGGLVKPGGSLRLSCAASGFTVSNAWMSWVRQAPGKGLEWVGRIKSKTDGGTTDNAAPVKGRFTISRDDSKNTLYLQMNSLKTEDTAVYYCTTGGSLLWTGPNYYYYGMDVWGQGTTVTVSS
VL: DIQMTQSPSSLSASVGDRVTITCQASQDINNYLNWYQQKPGKAPKLLIYDTSNLEPGVPSRFSGSGSGTDFTFTISSLQPEDIATYYCQQYDNLLTFGQGTRLEIK
notes: Hybridoma IgG1 (cohort 1); also called 1.143.2; 1.143.1
[15]
  Kd: 10 nM
  koff: 0.000559 s⁻¹
  kon: 55000 M⁻¹ s⁻¹
[16]
  Cynomolgus bone marrow bioassay IC50: 0.36 nM
[17]
  AML-5 bioassay IC50: 0.1 nM
[18]
  Cynomolgus bone marrow bioassay IC50: 54 ng/mL
[19]
  AML-5 bioassay IC50: 15 ng/mL

B5: anti-c-fms hybridoma antibody 2.360 (antibody, IgG2, V domains shown)
VH: B1 VH with A79V
VL: DIQMTQSPSSLSASVGDRVTITCRASQGINNYLAWYQQKPGKVPQLLIYVASTLQSGVPSRFSGSGSGTDFTLTISSLQPEDVATYYCQKYNSGPFTFGPGTKVDIK
notes: Hybridoma IgG2 (cohort 2)
[15]
  Kd: 5.6 nM
  koff: 0.000338 s⁻¹
  kon: 60500 M⁻¹ s⁻¹
[16]
  Cynomolgus bone marrow bioassay IC50: 0.053 nM
[17]
  AML-5 bioassay IC50: 0.027 nM
  Human CD14+ monocytes bioassay IC50: 0.067 nM
[18]
  Cynomolgus bone marrow bioassay IC50: 8 ng/mL
[19]
  AML-5 bioassay IC50: 4 ng/mL
  Human CD14+ monocytes bioassay IC50: 10 ng/mL

B6: anti-c-fms hybridoma antibody 2.475 (antibody, IgG2, V domains shown)
VH: QVQLVESGGGVVQPGRSLRLSCAASGFTFISYGMHWVRQAPGKGLEWVAVIWYDGSNKYYADSVKGRFTISRDNSKNTLYLQMNSLRAEDTAVYYCADSSGDYYGMDVWGQGTTVTVSS
VL: DIQMIQSPSSLSASVGDRVTITCQASHDISNYLNWYQQKPGKAPKFLISDASNLETGVPSRFSGSGSGTDFTFTISSLQPEDIATYYCQQYDNLPLTFGGGTKVEIK
notes: Hybridoma IgG2 (cohort 2); also called 2.475.2
[15]
  Kd: 4.7 nM
  koff: 0.0014 s⁻¹
  kon: 300000 M⁻¹ s⁻¹
[16]
  Cynomolgus bone marrow bioassay IC50: 0.167 nM
[17]
  AML-5 bioassay IC50: 0.04 nM
  Human CD14+ monocytes bioassay IC50: 0.067 nM
[18]
  Cynomolgus bone marrow bioassay IC50: 25 ng/mL
[19]
  AML-5 bioassay IC50: 6 ng/mL
  Human CD14+ monocytes bioassay IC50: 10 ng/mL

B7: recombinant human CSF-1 (ligand, UniProt P09603 33-190, looked up)
chain: EEVSEYCSHMIGSGHLQSLQRLIDSQMETSCQITFEFVDQEQLKDPVCYLKKAFLLVQDIMEDTMRFRDNTPNAIAIVQLQELSLRLKSCFTKDYEEHDKACVRTFYETPLQLLEKVKNVFNETKNLLDKDWNIFSKNCNNSFAECSSQDVVTKPDCN
notes: also called hCSF-1
[20]
  Ki: 0.0178 nM
[21]
  Kd: 0.046 nM
